According to article PMC3931528:

Target: PTB RRM1 (UniProt P26599 41-163)
Experiment: ITC

Chain of PTB RRM1 (P26599 41-163): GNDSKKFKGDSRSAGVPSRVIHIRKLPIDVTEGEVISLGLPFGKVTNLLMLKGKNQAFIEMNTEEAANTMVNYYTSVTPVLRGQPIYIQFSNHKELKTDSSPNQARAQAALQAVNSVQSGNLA

UCUCU (ssRNA) [CU 5-mer RNA]
Kd: 24.7 µM
